The results in this text go back to publication PMC6893399.

A short description of data set [1]: total CRMP2 western blot, brain lysate. The conditions noted are these: glycan lost; control: wild-type mice. For orientation: A western blot detects proteins with antibodies after separation by electrophoresis.
Data set [2] in a line: spontaneous alternation, enclosed plus maze. To be noted: glycan lost; control: wild-type littermates.
Data set [3] is described as follows: P509/514-CRMP2 antibody western blot, brain lysate. The conditions noted are these: glycan lost; control: wild-type mice.
Data set [4] is described as follows: histology, lateral and third ventricles. To be noted: glycan lost; control: wild-type littermates.
A short description of data set [5]: distance travelled, NOR test phase. To be noted: glycan lost; control: wild-type littermates.
The next data set is described as follows: open-field test. The conditions noted are these: glycan lost; control: wild-type littermates.
A short description of data set [6]: 3F4 (P509/514/518/522) antibody western blot, brain lysate. The conditions noted are these: glycan lost; control: wild-type mice.
Data set [7] can be described thus: histology, four points along cortex. The conditions noted are these: glycan lost; control: wild-type littermates.
A short description of data set [8]: maximum speed, NOR test phase. The conditions noted are these: glycan lost; control: wild-type littermates.

Take CRMP2: Crmp2S517A: in data set [1], the expression_or_secretion result is “no change”. The “other: spatial working memory” value in data set [2] is recorded as “no change”. Moreover, the “other: CRMP2 phosphorylation at GSK3β sites” value in data set [3] and in data set [6] was “no change” throughout. For the same substance, the “other: brain ventricular volume, other: volume” value in data set [4] is reported as “no change, 4.160 ± 1.252 vs 3.592 ± 1.155”. The “other: locomotion during NOR test phase, other: distance” value in data set [5] is “decreases, 9.4 ± 2.0 vs 12.8 ± 3.4”. Also, in “open-field test”, the “other: anxiety and locomotor activity” value was “no change”. In addition, the “other: cortical thickness, other: thickness” value in data set [7] was “no change, 1127 ± 93.24 vs 1197 ± 175.4”. In addition, the “other: locomotion during NOR test phase, other: speed” value in data set [8] is on record as “decreases, 0.124 ± 0.017 vs 0.145 ± 0.027”.
